ChEMBL document CHEMBL1221251, “Factorizing the role of a critical leucine residue in the binding of substrate to human 20alpha-hydroxysteroid dehydrogenase (AKR1C1): molecular modeling and kinetic studies of the Leu308Val mutant enzyme” (Bioorg Med Chem Lett, 2010)

Tests used:
[1] = tested on: Aldo-keto reductase family 1 member C1 (Homo sapiens), Q04828 [UNDEFINED MUTATION]; test: Ratio of Kcat/Km for human recombinant AKR1C1 Leu308Val mutant to Kcat/Km for human recombinant wild type AKR1C1
[2] = tested on: Aldo-keto reductase family 1 member C1 (Homo sapiens), Q04828 [UNDEFINED MUTATION]; test: Ratio of Km for human recombinant AKR1C1 Leu308Val mutant to Km for human recombinant wild type AKR1C1
[3] = tested on: Aldo-keto reductase family 1 member C1 (Homo sapiens), Q04828 [UNDEFINED MUTATION]; test: Ratio of Kcat/Km for human recombinant AKR1C1 Leu308Ala mutant to Kcat/Km for human recombinant wild type AKR1C1
[4] = tested on: Aldo-keto reductase family 1 member C1 (Homo sapiens), Q04828 [UNDEFINED MUTATION]; test: Ratio of Km for human recombinant AKR1C1 Leu308Ala mutant to Km for human recombinant wild type AKR1C1
[5] = substrate: C[C@@H](O)[C@H]1CC[C@H]2[C@@H]3CC[C@H]4C[C@H](O)CC[C@]4(C)[C@H]3CC[C@]12C; test: (§1) Activity at human recombinant wild type AKR1C1 expressed in Escherichia coli JM109 after 15 mins
[6] = substrate: CC(=O)[C@H]1CC[C@H]2[C@@H]3CC[C@@H]4C[C@H](O)CC[C@]4(C)[C@H]3CC[C@]12C; test: as §1
[7] = substrate: C[C@@H](O)[C@H]1CC[C@H]2[C@@H]3CC[C@H]4C[C@H](O)CC[C@]4(C)[C@H]3CC[C@]12C; test: (§2) Ratio of kcat/km for human recombinant wild type AKR1C1 expressed in Escherichia coli JM109 after 15 mins
[8] = substrate: CC(=O)[C@H]1CC[C@H]2[C@@H]3CC[C@@H]4C[C@H](O)CC[C@]4(C)[C@H]3CC[C@]12C; test: as §2
[9] = molecular target: T1, Aldo-keto reductase family 1 member C1 (Homo sapiens) (UniProt Q04828); test: Activity at human recombinant wild type AKR1C1 expressed in Escherichia coli JM109 after 15 mins
[10] = molecular target: T1, Aldo-keto reductase family 1 member C1 …; test: Ratio of kcat/km for human recombinant wild type AKR1C1 expressed in Escherichia coli JM109 after 15 mins
[11] = substrate: C[C@@H](O)[C@H]1CC[C@H]2[C@@H]3CC[C@H]4C[C@H](O)CC[C@]4(C)[C@H]3CC[C@]12C; test: (§3) Activity at human recombinant AKR1C1 Leu308Val mutant expressed in Escherichia coli JM109 after 15 mins
[12] = substrate: CC(=O)[C@H]1CC[C@H]2[C@@H]3CC[C@@H]4C[C@H](O)CC[C@]4(C)[C@H]3CC[C@]12C; test: as §3
[13] = substrate: C[C@@H](O)[C@H]1CC[C@H]2[C@@H]3CC[C@H]4C[C@H](O)CC[C@]4(C)[C@H]3CC[C@]12C; test: (§4) Ratio of kcat/km for human recombinant AKR1C1 Leu308Val mutant expressed in Escherichia coli JM109 after 15 mins
[14] = substrate: CC(=O)[C@H]1CC[C@H]2[C@@H]3CC[C@@H]4C[C@H](O)CC[C@]4(C)[C@H]3CC[C@]12C; test: as §4

Molecule: CC(=O)[C@H]1CC[C@H]2[C@@H]3CC[C@@H]4C[C@H](O)CC[C@]4(C)[C@H]3CC[C@]12C
- Ratio [1]: 0.2
- Ratio [2]: 2

Molecule: O[C@H]1CCCc2ccccc21
- Ratio [1]: 0.2
- Ratio [3]: 0.01
- Ratio [2]: 2
- Ratio [4]: 67

Molecule: C[C@@H](O)[C@H]1CC[C@H]2[C@@H]3CC[C@H]4C[C@H](O)CC[C@]4(C)[C@H]3CC[C@]12C
- Ratio [1]: 7
- Ratio [2]: 0.4

B1: Aldo-keto reductase family 1 member C1 (Homo sapiens), Q04828 (protein)
chain: MDSKYQCVKLNDGHFMPVLGFGTYAPAEVPKSKALEATKLAIEAGFRHIDSAHLYNNEEQVGLAIRSKIADGSVKREDIFYTSKLWCNSHRPELVRPALERSLKNLQLDYVDLYLIHFPVSVKPGEEVIPKDENGKILFDTVDLCATWEAVEKCKDAGLAKSIGVSNFNRRQLEMILNKPGLKYKPVCNQVECHPYFNQRKLLDFCKSKDIVLVAYSALGSHREEPWVDPNSPVLLEDPVLCALAKKHKRTPALIALRYQLQRGVVVLAKSYNEQRIRQNVQVFEFQLTSEEMKAIDGLNRNVRYLTLDIFAGPPNYPFSDEY
- Km [5]: 0.9 µM⁻¹
- Km [6]: 7 µM⁻¹
- kcat/Km [7]: 2.4 µM⁻¹ min⁻¹
- kcat/Km [8]: 3.7 µM⁻¹ min⁻¹
- Km [9]: 7 µM⁻¹
- kcat/Km [10]: 3.7 µM⁻¹ min⁻¹

B2: Aldo-keto reductase family 1 member C1 (Homo sapiens), Q04828 L308V (protein)
chain: MDSKYQCVKLNDGHFMPVLGFGTYAPAEVPKSKALEATKLAIEAGFRHIDSAHLYNNEEQVGLAIRSKIADGSVKREDIFYTSKLWCNSHRPELVRPALERSLKNLQLDYVDLYLIHFPVSVKPGEEVIPKDENGKILFDTVDLCATWEAVEKCKDAGLAKSIGVSNFNRRQLEMILNKPGLKYKPVCNQVECHPYFNQRKLLDFCKSKDIVLVAYSALGSHREEPWVDPNSPVLLEDPVLCALAKKHKRTPALIALRYQLQRGVVVLAKSYNEQRIRQNVQVFEFQLTSEEMKAIDGLNRNVRYLTVDIFAGPPNYPFSDEY
- Km [11]: 0.4 µM⁻¹
- Km [12]: 16 µM⁻¹
- kcat/Km [13]: 16 µM⁻¹ min⁻¹
- kcat/Km [14]: 0.8 µM⁻¹ min⁻¹
